From patent US5717058A, “Peptide inhibitors of tax-dependent transcription” (priority 1994, dated 1998)
“Also recorded” adds a separate entry of the source. No end group written: not given here.

Legend:
[1] = solubility in aqueous solution; format: physicochemical
Tax-CREB interaction = target: T1, Tax-CREB interaction (Homo sapiens, UniProt P16220); test: EMSA, inhibition of Tax-mediated enhancement of CREB binding to HTLV-I 21 bp repeat DNA; settings: for fold enhancement: 200 nM Tax
T1 construct: made in house
T1 sequence (P16220 whole entry): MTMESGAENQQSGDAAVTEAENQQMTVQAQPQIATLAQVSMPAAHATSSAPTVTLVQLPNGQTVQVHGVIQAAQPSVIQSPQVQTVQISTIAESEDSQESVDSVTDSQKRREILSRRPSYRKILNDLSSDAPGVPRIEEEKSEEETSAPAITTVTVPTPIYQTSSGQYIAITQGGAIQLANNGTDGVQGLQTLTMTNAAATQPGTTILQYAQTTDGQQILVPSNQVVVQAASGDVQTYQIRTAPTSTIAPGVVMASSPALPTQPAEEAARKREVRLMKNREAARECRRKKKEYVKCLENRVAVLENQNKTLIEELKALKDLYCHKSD
Excerpt: The HTLV-I transactivator Tax enhances the binding of CREB to the 21 bp repeat sequences contained in the HTLV-I LTR (Zhao and Giam (1992) PNAS 89:7070-7074; Franklin et al. 1993 J. Biol. Chem. 268:21225-21231; Wagner and Green, 1993 Science 262:395-399). We are testing whether peptides representing portions of the primary sequence of Tax can disrupt the Tax-CREB interaction as measured by EMSA.
Purified recombinant CREB was isolated as previously published (Franklin et al. 1993 J. Biol. Chem. 268:21225-21231) and active DNA-binding CREB was purified by heparin-agarose chromatography. Purified recombinant TaxH6 (contains a six-histidine purification tag at the C-terminus of Tax) was isolated an purified as previously published (Zhao and Giam (1991) PNAS 88:12445-11449; Franklin et al. 1993 J. Biol. Chem. 268:21225-21231). Peptides were synthesized and purified as described in Example 1. The third HTLV-I 21 bp repeat (Seq. ID. No. 43) was cloned into the Bgl II site of pUC19. The 70 bp DNA probe fragment was excised with Kpn I and Hind III, phosphatased and gel purified.
EMSA reactions contained 0.1-2.0 nM [^32 P]end-labeled double stranded site 3 probe, 5-50 ng poly (dI-dC) carrier DNA, 1-5 nM purified recombinant CREB, 100-200 nM purified recombinant TaxH6, 15 mM HEPES pH 8.0, 1.5% DMSO, 25 mM Tris-HCl pH 7.9, 6.25 mM MgCl2, 0.5 mM EDTA, 0.5 mM DTT, 60-120 mM KCl, and 10% (v/v) glycerol, and candidate peptide inhibitors in a 20 μl reaction volume. CREB was incubated with the peptides or mock buffer (5% DMSO 50 mM HEPES pH 8.0) for 2-5 min. at room temp. then TaxH6 and DNA mixture were added. The complete reaction mixture was incubated 10-20 min. further at room temp. then analyzed on 5% non-denaturing polyacrylamide gels (49:1, acrylamide:N,N-methylene bisacrylamide). The electrophoresis buffer contained 0.04M Tris, 0.306M glycine, pH 8.5, and 0.1% Nonidet P-40. Gels were dried were autoradiographed. Relative amounts of protein-DNA complex were quantitated using Phosphor Image Analysis.
The primary amino acid sequence of Tax was divided into 29 peptides 20 amino adds in length with an overlap of eight amino acids (see Detailed Description of the Invention and Example 1). The number of the first amino acid in each peptide corresponds to its position in the primary sequence of Tax. Six peptides were tested by EMSA for inhibition of Tax-mediated enhancement. The percentage of radiolabeled DNA probe shifted into protein-DNA complexes in each reaction was quantitated by phosphorimage analysis. Fold enhancement was calculated by dividing the amount of probe shifted in each reaction by the amount of probe shifted in reactions containing CREB, DNA and mock peptide buffer (Table 1). Reactions in Table 1 contained 0.5 nM radiolabeled DNA probe, 10 ng poly dIdC, 1.25% v/v DMSO, 12.5 mM HEPES pH 8.0, 25 mM Tris pH 7.9, 6.25 mM MgCl2, 75 mM KCl, 0.5 mM EDTA, 0.5 mM DTT, 10% v/v glycerol, and CREB, Tax and peptide as indicated in a final volume of 20 μL.
Reactions in Table 2 contained 0.5 nM radiolabeled DNA probe, 10 ng poly dIdC, 1.75% v/v DMSO, 17.5 mM HEPES pH 8.0, 25 mM Tris pH 7.9, 6.25 mM MgCl2, 75 mM KCl, 0.5 mM EDTA, 0.5 mM DTT, 10% v/v glycerol, and CREB, Tax and peptide as indicated in a final volume of 20 μL. Protein-DNA complexes were quantitated by phosphorimage analysis. Fold enhancement was calculated by dividing the amount of complex formed in each reaction by the amount of complex formed in a reaction containing CREB, DNA, mock Tax buffer and mock peptide buffer.
Reactions in Table 3 contained 0.5 nM radiolabeled DNA probe, 10 ng poly dIdC, 1.75% v/v DMSO, 17.5 mM HEPES pH 8.0, 25 mM Tris pH 7.9, 6.25 mM MgCl2, 75 mM KCl, 0.5 mM EDTA, 0.5 mM DTT, 10% v/v glycerol, and CREB, Tax and peptide as indicated in a final volume of 20 μL. Amount of complex was quantitated by densitometry (PDI). […]

For `CC(C)C[C@H](NC(=O)[C@H](CC(C)C)NC(=O)[C@H](Cc1c[nH]cn1)NC(=O)[C@H](CC(C)C)NC(=O)[C@H](CO)NC(=O)[C@H](Cc1c[nH]cn1)NC(=O)[C@H](Cc1ccccc1)NC(=O)[C@H](CO)NC(=O)CNC(=O)CNC(=O)[C@H](CCC(=O)O)NC(=O)[C@@H](N)CCC(=O)O)C(=O)N[C@@H](Cc1ccccc1)C(=O)N[C@@H](CCC(=O)O)C(N)=O` [Seq ID No. 55, EEGGSFHSLHLLFE], the “solubility in aqueous solution, in words” value [1] was “more soluble”.

With HSLHLLFEEY-NH2 [TX303-313, HSLHLLFEEY] the “solubility in aqueous solution, in words” value [1] was “sparingly soluble”.

With `CC(C)C[C@H](NC(=O)[C@H](CC(C)C)NC(=O)[C@H](Cc1c[nH]cn1)NC(=O)[C@H](CC(C)C)NC(=O)[C@H](CO)NC(=O)[C@H](Cc1c[nH]cn1)NC(=O)[C@H](Cc1ccccc1)NC(=O)[C@@H](N)CO)C(=O)N[C@@H](Cc1ccccc1)C(=O)N[C@@H](CCC(=O)O)C(=O)N[C@@H](CCC(=O)O)C(=O)N[C@@H](CCC(=O)O)C(N)=O` [Seq ID No. 54, SFHSLHLLFEEE] the “solubility in aqueous solution, in words” value [1] was “more soluble”.

For `CC(C)C[C@H](NC(=O)[C@H](CC(C)C)NC(=O)[C@H](Cc1c[nH]cn1)NC(=O)[C@H](CC(C)C)NC(=O)[C@H](CO)NC(=O)[C@H](Cc1c[nH]cn1)NC(=O)[C@H](Cc1ccccc1)NC(=O)[C@H](CO)NC(=O)CNC(=O)CNC(=O)[C@H](CCC(=O)O)NC(=O)[C@@H](N)CCC(=O)O)C(=O)N[C@@H](Cc1ccccc1)C(=O)N[C@@H](CCC(=O)O)C(=O)N[C@@H](CCC(=O)O)C(=O)N[C@@H](CCC(=O)O)C(N)=O` [Seq ID No. 56, EEGGSFHSLHLLFEEE], the “solubility in aqueous solution, in words” value [1] was “more soluble”.

With “TX313: 20 amino acid Tax peptide beginning at amino acid 313, overlaps TX301 by 8 amino acids” the “effect on Tax-mediated enhancement of CREB binding to DNA (complex formation), in words” value (Tax-CREB interaction; EMSA, CREB + Tax + peptide) was “slight enhancement of complex formation at some concentrations”, the fold enhancement (Tax-CREB interaction; Table 4, TX313 35 μM, 3.4 nM CREB, Tax without peptide 4.48, densitometry) was 5.16 fold and the fold enhancement (Tax-CREB interaction; Table 4, TX313 70 μM, 3.4 nM CREB, Tax without peptide 4.48, densitometry) was 5.60 fold. For the same compound, the fold enhancement (Tax-CREB interaction; Table 4, TX313 140 μM, 3.4 nM CREB, Tax without peptide 4.48, densitometry) was 4.49 fold and the “dose dependence of the effect on Tax-mediated enhancement, in words” value (Tax-CREB interaction; titration in EMSA) was “did not have a dose dependent affect; also recorded: no dose dependence”.

FLSEFLHSHL [SCM2, reference compound] showed a fold enhancement (Tax-CREB interaction; Table 8, SCM2 0.75 μM, 2.3 nM CREB, Tax without peptide 17.0) of 17.9 fold, a fold enhancement (Tax-CREB interaction; Table 8, SCM2 1.50 μM, 2.3 nM CREB, Tax without peptide 17.0) of 17.8 fold and a fold enhancement (Tax-CREB interaction; Table 8, SCM2 7.50 μM, 2.3 nM CREB, Tax without peptide 17.0) of 14.5 fold. For the same compound, the fold enhancement (Tax-CREB interaction; Table 8, SCM2 15.00 μM, 2.3 nM CREB, Tax without peptide 17.0) was 9.7 fold, the fold enhancement (Tax-CREB interaction; Table 8, SCM2 75.00 μM, 2.3 nM CREB, Tax without peptide 17.0) was 3.3 fold and the fold enhancement (Tax-CREB interaction; Table 8, SCM2 150.00 μM, 2.3 nM CREB, Tax without peptide 17.0) was 1.1 fold.

In the case of `CC[C@H](C)[C@H](NC(=O)[C@@H]1CCCN1C(=O)[C@@H](NC(=O)[C@H](CC(N)=O)NC(=O)[C@@H](NC(=O)[C@H](Cc1ccc(O)cc1)NC(=O)[C@H](CCC(=O)O)NC(=O)[C@H](CCC(=O)O)NC(=O)[C@H](Cc1ccccc1)NC(=O)[C@H](CC(C)C)NC(=O)[C@H](CC(C)C)NC(=O)[C@H](Cc1c[nH]cn1)NC(=O)[C@H](CC(C)C)NC(=O)[C@H](CO)NC(=O)[C@H](Cc1c[nH]cn1)NC(=O)[C@H](Cc1ccccc1)NC(=O)[C@@H](N)CO)[C@@H](C)O)[C@@H](C)CC)C(=O)N[C@@H](CO)C(=O)N[C@@H](CC(C)C)C(=O)N[C@@H](CC(C)C)C(N)=O` [TX301], the “solubility in aqueous solution, in words” value [1] was “limited solubility in aqueous solutions; also recorded: sparingly soluble”.

With `CC(C)C[C@H](NC(=O)[C@H](CC(C)C)NC(=O)[C@H](Cc1c[nH]cn1)NC(=O)[C@H](CC(C)C)NC(=O)[C@H](CO)NC(=O)[C@H](Cc1c[nH]cn1)NC(=O)[C@H](Cc1ccccc1)NC(=O)[C@@H](N)CO)C(=O)N[C@@H](Cc1ccccc1)C(=O)N[C@@H](CCC(=O)O)C(N)=O` [TX301-310, SFHSLHLLFE] the “solubility in aqueous solution, in words” value [1] was “sparingly soluble”.
